Target: HMPV F v3B_Δ12 (human metapneumovirus)
Assay: BLI; Octet Red384; […] (500.0 nM to 7.8 nM), 300 s association and 300 s dissociation; 30°C, […]; global 1:1 fit

MPE8 antigen-binding fragment (Fab)
Kd: 21 nM
